Results from WO2013151666A2.

Molecular target: Low density lipoprotein receptor (LDLR) expressed on HEK293 cells transfected with LDLR modified mRNA (mRNA SEQ ID NO: 21463) (human) (UniProt P01130)
Test: FACS; rising amounts of BODIPY-LDL on HEK293 cells transfected with LDLR mRNA, 1 h at 37 C

Sequence of Low density lipoprotein receptor (LDLR) expressed on HEK293 cells transfected with LDLR modified mRNA (mRNA SEQ ID NO: 21463) (human) (P01130 22-860): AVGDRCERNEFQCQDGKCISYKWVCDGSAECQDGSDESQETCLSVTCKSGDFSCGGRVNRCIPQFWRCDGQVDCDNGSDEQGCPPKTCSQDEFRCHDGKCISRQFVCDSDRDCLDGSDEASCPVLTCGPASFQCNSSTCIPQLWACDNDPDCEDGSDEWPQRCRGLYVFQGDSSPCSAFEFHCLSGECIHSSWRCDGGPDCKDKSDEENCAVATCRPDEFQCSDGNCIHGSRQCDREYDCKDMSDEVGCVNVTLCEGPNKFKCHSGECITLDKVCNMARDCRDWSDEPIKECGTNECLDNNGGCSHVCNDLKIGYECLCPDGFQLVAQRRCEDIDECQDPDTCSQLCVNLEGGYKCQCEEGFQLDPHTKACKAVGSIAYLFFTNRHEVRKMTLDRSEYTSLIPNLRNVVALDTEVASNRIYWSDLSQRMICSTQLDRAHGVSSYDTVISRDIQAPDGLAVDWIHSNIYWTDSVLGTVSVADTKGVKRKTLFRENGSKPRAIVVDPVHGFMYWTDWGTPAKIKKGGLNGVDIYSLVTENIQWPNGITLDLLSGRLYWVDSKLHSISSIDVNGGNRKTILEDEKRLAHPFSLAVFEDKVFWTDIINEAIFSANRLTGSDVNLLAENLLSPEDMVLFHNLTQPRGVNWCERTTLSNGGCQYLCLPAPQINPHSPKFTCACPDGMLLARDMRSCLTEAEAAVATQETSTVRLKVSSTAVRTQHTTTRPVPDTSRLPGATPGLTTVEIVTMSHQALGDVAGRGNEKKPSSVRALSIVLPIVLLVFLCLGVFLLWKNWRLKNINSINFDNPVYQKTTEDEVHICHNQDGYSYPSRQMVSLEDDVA

Substance: BODIPY-labeled LDL (low density lipoprotein) (from UniProt P04114 28-4563) (ligand)
- Kd: 0.06 µg/mL
